Measured values as given in paper doi:10.1101/2022.09.29.510120.

Assays:
[1] = target: native RPE1 extracted from Chlamydomonas reinhardtii cell cultures (Chlamydomonas reinhardtii (endogenous in strain D66)); assay: SEC
[2] = target: recombinant ribulose-5-phosphate-3-epimerase isoform 1 from Chlamydomonas reinhardtii (CrRPE1) (Chlamydomonas reinhardtii); assay: crystal structure
[3] = target: recombinant ribulose-5-phosphate-3-epimerase isoform 1 from Chlamydomonas reinhardtii (CrRPE1) (Chlamydomonas reinhardtii); assay: SEC-SAXS
[4] = target: recombinant ribulose-5-phosphate-3-epimerase isoform 1 from Chlamydomonas reinhardtii (CrRPE1) (Chlamydomonas reinhardtii); assay: SEC

Substance	stoichiometry N [1] [subunits]	stoichiometry N [2] [subunits]	stoichiometry N (subunits per particle) [3]	stoichiometry N [4] [subunits]
native RPE1 extracted from Chlamydomonas reinhardtii cell cultures (enzyme)	6			
recombinant ribulose-5-phosphate-3-epimerase isoform 1 from Chlamydomonas reinhardtii (CrRPE1) (enzyme)		6	6	5
